Laboratory results reported in article PMC6109231.
Values joined by “and” are separate entries in the source; they are usually repeats but may differ in a detail not shown here. Identical values can stand only once.

Molecular target: 20S proteasome core (human (endogenous in HEK293T))
Assay: negative-stain EM, single-particle analysis; SEC fraction 4 (1.5 to 2 MDa) of HEK293T lysate, Superdex 200 in PBS pH 7.2 at 4°C; 2% uranyl acetate; raw micrographs, reference-free 2D class averages, 3D classification (RELION) and ab initio reconstruction (cryoSPARC); proteins identified by mass spectrometry of the fraction

stoichiometry N: 1 and 2
Substance: 19S regulatory particle (complex)
